Results reported in IntAct's records for PubMed 35512704.

B1: Mothers against decapentaplegic homolog 4 (Homo sapiens), Q13485 (parent)
chain: MDNMSITNTPTSNDACLSIVHSLMCHRQGGESETFAKRAIESLVKKLKEKKDELDSLITAITTNGAHPSKCVTIQRTLDGRLQVAGRKGFPHVIYARLWRWPDLHKNELKHVKYCQYAFDLKCDSVCVNPYHYERVVSPGIDLSGLTLQSNAPSSMMVKDEYVHDFEGQPSLSTEGHSIQTIQHPPSNRASTETYSTPALLAPSESNATSTANFPNIPVASTSQPASILGGSHSEGLLQIASGPQPGQQQNGFTGQPATYHHNSTTTWTGSRTAPYTPNLPHHQNGHLQHHPPMPPHPGHYWPVHNELAFQPPISNHPAPEYWCSIAYFEMDVQVGETFKVPSSCPIVTVDGYVDPSGGDRFCLGQLSNVHRTEAIERARLHIGKGVQLECKGEGDVWVRCLSDHAVFVQSYYLDREAGRAPGDAVHKIYPSAYIKVFDLRQCHRQMQQQAATAQAAAAAQAAAVAGNIPGPGSVGGIAPAISLSAAAGIGVDDLRRLCILRMSFVKGWGPDYPRQSIKETPCWIEIHLHRALQLLDEVLHTMPIADPQPLD
partner: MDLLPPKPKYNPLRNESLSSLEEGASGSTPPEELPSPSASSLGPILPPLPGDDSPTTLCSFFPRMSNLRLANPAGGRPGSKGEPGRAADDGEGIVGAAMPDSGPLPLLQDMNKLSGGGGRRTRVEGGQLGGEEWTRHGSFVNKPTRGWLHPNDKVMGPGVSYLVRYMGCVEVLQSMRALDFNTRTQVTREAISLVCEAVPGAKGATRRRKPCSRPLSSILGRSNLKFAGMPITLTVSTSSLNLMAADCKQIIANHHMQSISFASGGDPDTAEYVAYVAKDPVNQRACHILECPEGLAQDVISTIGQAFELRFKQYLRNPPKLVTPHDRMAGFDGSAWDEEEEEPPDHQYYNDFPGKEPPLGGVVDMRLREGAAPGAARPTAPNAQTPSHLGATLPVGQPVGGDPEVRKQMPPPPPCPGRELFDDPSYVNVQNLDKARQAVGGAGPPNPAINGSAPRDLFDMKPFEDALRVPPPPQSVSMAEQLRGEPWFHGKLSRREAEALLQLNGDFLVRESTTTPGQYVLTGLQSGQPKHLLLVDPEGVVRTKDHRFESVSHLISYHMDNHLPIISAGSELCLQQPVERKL
B2: Mothers against decapentaplegic homolog 4 (Homo sapiens), Q13485 (parent)
chain: B1 chain
partner: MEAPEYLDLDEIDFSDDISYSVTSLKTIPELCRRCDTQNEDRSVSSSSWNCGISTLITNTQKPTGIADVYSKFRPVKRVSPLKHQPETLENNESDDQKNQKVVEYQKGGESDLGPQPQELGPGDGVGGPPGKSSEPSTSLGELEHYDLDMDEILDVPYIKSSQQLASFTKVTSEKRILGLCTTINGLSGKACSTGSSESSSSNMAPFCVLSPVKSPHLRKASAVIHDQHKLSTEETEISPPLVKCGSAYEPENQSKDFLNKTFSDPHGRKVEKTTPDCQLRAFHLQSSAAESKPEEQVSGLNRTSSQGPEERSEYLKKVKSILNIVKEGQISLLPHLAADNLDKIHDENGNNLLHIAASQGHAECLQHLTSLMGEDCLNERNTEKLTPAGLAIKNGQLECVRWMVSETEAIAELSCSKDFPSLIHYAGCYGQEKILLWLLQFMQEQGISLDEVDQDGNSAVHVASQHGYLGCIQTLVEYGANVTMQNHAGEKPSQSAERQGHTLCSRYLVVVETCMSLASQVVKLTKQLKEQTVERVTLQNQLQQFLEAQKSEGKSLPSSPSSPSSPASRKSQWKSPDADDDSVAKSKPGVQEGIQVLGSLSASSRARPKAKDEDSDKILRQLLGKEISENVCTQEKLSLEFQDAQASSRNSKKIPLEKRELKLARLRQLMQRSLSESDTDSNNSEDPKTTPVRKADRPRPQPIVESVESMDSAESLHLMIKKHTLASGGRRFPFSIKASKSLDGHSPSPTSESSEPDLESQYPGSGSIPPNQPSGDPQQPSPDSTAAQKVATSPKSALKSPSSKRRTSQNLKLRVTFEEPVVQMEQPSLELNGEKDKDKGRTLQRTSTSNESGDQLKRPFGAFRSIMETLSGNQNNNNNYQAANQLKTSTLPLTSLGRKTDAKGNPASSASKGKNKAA
B3: Mothers against decapentaplegic homolog 4 (Homo sapiens), Q13485 (parent)
chain: B1 chain
partner: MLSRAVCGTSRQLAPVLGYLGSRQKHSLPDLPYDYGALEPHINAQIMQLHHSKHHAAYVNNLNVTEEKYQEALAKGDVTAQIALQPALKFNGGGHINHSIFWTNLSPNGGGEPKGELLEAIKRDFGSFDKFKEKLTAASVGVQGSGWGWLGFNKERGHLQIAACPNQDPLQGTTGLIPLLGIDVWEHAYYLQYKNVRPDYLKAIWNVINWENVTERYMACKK
B4: Mothers against decapentaplegic homolog 4 (Homo sapiens), Q13485 (parent)
chain: B1 chain
partner: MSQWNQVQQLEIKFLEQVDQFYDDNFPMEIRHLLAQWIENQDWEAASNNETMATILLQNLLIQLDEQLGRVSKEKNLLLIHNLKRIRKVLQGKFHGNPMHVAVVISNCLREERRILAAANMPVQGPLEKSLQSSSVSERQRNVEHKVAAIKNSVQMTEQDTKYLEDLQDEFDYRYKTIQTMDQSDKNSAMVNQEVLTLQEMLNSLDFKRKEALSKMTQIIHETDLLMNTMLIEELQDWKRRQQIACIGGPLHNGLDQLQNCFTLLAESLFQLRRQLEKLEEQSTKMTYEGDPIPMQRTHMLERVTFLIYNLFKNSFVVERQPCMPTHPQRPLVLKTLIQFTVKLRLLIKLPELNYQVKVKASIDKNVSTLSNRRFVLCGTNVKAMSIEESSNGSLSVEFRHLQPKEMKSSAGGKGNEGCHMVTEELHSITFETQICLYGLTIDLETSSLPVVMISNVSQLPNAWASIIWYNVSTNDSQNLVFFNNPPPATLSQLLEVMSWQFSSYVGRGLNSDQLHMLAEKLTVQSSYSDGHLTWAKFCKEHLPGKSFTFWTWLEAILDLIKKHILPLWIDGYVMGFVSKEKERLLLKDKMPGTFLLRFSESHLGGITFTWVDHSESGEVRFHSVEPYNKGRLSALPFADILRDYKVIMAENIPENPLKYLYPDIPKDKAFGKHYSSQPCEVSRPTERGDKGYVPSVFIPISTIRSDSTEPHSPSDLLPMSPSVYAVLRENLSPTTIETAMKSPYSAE
B5: Mothers against decapentaplegic homolog 4 (Homo sapiens), Q13485 (parent)
chain: B1 chain
partner: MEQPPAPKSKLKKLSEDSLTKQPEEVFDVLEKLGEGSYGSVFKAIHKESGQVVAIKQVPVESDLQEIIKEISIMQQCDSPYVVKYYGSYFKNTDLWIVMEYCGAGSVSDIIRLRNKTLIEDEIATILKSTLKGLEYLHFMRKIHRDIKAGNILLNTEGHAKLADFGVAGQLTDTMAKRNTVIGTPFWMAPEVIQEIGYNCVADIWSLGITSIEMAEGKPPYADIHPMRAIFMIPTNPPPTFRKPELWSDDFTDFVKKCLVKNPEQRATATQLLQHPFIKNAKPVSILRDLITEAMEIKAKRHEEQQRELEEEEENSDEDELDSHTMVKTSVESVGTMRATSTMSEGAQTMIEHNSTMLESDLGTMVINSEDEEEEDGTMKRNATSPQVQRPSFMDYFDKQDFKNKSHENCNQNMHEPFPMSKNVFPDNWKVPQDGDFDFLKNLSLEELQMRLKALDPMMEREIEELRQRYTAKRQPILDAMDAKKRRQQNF
B6: Mothers against decapentaplegic homolog 4 (Homo sapiens), Q13485 (parent)
chain: B1 chain
partner: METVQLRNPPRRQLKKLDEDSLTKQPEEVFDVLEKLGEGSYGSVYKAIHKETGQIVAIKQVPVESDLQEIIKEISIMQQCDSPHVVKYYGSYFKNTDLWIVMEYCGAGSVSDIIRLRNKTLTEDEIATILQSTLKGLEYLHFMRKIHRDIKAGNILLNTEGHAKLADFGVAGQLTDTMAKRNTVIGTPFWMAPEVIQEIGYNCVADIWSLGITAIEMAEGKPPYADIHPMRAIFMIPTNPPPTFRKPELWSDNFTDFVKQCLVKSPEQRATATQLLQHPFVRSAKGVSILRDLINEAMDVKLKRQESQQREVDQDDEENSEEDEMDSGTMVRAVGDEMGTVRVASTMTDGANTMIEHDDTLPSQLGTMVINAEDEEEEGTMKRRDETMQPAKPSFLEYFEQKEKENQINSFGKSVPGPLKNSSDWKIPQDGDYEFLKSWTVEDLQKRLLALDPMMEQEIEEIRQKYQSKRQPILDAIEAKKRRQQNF

Variants of: B1
Settings: with shc1_human SHC1, P29353

Q: How did the “effect of a mutation on the interaction” value turn out when D351H was run?
A: The value was “with no effect”.

Variants of: B1
Settings: with shc1_human SHC1, P29353
Remark: another data set of the same source

Q: With G386D as the variant, how does the “effect of a mutation on the interaction” value read?
A: The value was “with no effect”.

Variants of: B1
Settings: with shc1_human SHC1, P29353
Remark: another data set of the same source

Q: How did the “effect of a mutation on the interaction” value turn out when R361C was run?
A: Its value is “with no effect”.

Variants of: B1
Settings: with shc1_human SHC1, P29353
Remark: another data set of the same source

Q: R361H was tested. Which “effect of a mutation on the interaction” value did it give?
A: Its value is “with no effect”.

Variants of: B2
Settings: with sncap_human SNCAIP

Q: With D351H as the variant, how does the “effect of a mutation on the interaction” value read?
A: The value was “with no effect”.

Variants of: B2
Settings: with sncap_human SNCAIP
Remark: another data set of the same source

Q: Which “effect of a mutation on the interaction” value does the source give for G386D here?
A: The value was “with no effect”.

Variants of: B2
Settings: with sncap_human SNCAIP
Remark: another data set of the same source

Q: With R361C as the variant, how does the “effect of a mutation on the interaction” value read?
A: The value was “with no effect”.

Variants of: B2
Settings: with sncap_human SNCAIP
Remark: another data set of the same source

Q: R361H was tested. Which “effect of a mutation on the interaction” value did it give?
A: Its value is “with no effect”.

Variants of: B3
Settings: with sodm_human SOD2, P04179

Q: For D351H, which “effect of a mutation on the interaction” value is on record?
A: Its value is “with no effect”.

Variants of: B3
Settings: with sodm_human SOD2, P04179
Remark: another data set of the same source

Q: Which “effect of a mutation on the interaction” value does the source give for G386D here?
A: The value was “with no effect”.

Variants of: B3
Settings: with sodm_human SOD2, P04179
Remark: another data set of the same source

Q: Which “effect of a mutation on the interaction” value does the source give for R361C here?
A: The value was “with no effect”.

Variants of: B3
Settings: with sodm_human SOD2, P04179
Remark: another data set of the same source

Q: For R361H, which “effect of a mutation on the interaction” value is on record?
A: Its value is “with no effect”.

Variants of: B4
Settings: with stat4_human STAT4, Q14765

Q: D351H was tested. Which “effect of a mutation on the interaction” value did it give?
A: Its value is “with no effect”.

Variants of: B4
Settings: with stat4_human STAT4, Q14765
Remark: another data set of the same source

Q: With G386D as the variant, how does the “effect of a mutation on the interaction” value read?
A: Its value is “with no effect”.

Variants of: B4
Settings: with stat4_human STAT4, Q14765
Remark: another data set of the same source

Q: With R361C as the variant, how does the “effect of a mutation on the interaction” value read?
A: Its value is “with no effect”.

Variants of: B4
Settings: with stat4_human STAT4, Q14765
Remark: another data set of the same source

Q: How did the “effect of a mutation on the interaction” value turn out when R361H was run?
A: Its value is “with no effect”.

Variants of: B5
Settings: with stk3_human STK3, Q13188

Q: For D351H, which “effect of a mutation on the interaction” value is on record?
A: Its value is “with no effect”.

Variants of: B5
Settings: with stk3_human STK3, Q13188
Remark: another data set of the same source

Q: G386D was tested. Which “effect of a mutation on the interaction” value did it give?
A: The value was “with no effect”.

Variants of: B5
Settings: with stk3_human STK3, Q13188
Remark: another data set of the same source

Q: Which “effect of a mutation on the interaction” value does the source give for R361C here?
A: The value was “with no effect”.

Variants of: B5
Settings: with stk3_human STK3, Q13188
Remark: another data set of the same source

Q: With R361H as the variant, how does the “effect of a mutation on the interaction” value read?
A: Its value is “with no effect”.

Variants of: B6
Settings: with stk4_human STK4, Q13043

Q: D351H was tested. Which “effect of a mutation on the interaction” value did it give?
A: Its value is “with no effect”.

Variants of: B6
Settings: with stk4_human STK4, Q13043
Remark: another data set of the same source

Q: With G386D as the variant, how does the “effect of a mutation on the interaction” value read?
A: The value was “with no effect”.

Variants of: B6
Settings: with stk4_human STK4, Q13043
Remark: another data set of the same source

Q: R361C was tested. Which “effect of a mutation on the interaction” value did it give?
A: Its value is “with no effect”.

Variants of: B6
Settings: with stk4_human STK4, Q13043
Remark: another data set of the same source

Q: With R361H as the variant, how does the “effect of a mutation on the interaction” value read?
A: Its value is “with no effect”.
